The assay concerns the target human zalpha11 receptor (full-length, on cells) (human) (UniProt Q9HBE5). Description: cell-based or functional assay.
Sequence of UniProt Q9HBE5 (Q9HBE5 20-538 limits assumed): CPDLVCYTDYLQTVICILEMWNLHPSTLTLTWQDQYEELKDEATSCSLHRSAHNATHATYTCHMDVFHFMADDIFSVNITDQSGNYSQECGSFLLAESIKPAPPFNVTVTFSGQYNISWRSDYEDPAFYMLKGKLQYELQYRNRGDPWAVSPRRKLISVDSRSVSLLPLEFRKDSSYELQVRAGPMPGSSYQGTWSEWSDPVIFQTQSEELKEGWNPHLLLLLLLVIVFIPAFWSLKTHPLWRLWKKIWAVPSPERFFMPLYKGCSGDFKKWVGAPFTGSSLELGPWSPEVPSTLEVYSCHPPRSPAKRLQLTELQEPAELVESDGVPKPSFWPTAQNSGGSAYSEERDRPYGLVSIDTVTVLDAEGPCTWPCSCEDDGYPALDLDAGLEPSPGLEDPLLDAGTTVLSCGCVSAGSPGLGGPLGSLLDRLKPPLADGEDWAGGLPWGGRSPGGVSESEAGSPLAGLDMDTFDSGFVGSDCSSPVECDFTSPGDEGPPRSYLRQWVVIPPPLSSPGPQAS

Sequence of human zalpha11 Ligand-saporin immunotoxin conjugate (Q9HBE4 32-162): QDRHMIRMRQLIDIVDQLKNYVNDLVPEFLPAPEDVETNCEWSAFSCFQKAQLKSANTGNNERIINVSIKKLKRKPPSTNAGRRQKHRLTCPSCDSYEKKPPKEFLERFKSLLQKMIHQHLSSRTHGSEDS

For the substance “human zalpha11 Ligand-saporin immunotoxin conjugate”, the growth inhibition of IM-9 cells at the maximal conjugate concentration (250 ng/ml), Alamar Blue came out at 79% and the growth inhibition of RAMOS cells at the maximal conjugate concentration (250 ng/ml), Alamar Blue is 65%.
